Patent publication US10052364B2, “Osteocalcin as a treatment for cognitive disorders” (THE TRUSTEES OF COLUMBIA UNIVERSITY IN THE CITY OF NEW YORK, priority 2013, dated 2018)

Test system: Osteocalcin-/- mice born from Osteocalcin-/- mothers
Experiment: Osteocalcin injections in pregnant Osteocalcin-/- mothers (E0.5-E18.5): offspring behavior and brain histology
Type: in vivo, mouse
Method: FIG. 7. Maternal osteocalcin determines spatial learning and memory in adult offspring. (A-F) DLT (A), EPMT (B), OFT (C), FST (D), TST (E), and MWMT (F) performed in 3-month-old Ocn^−/− mice born from Ocn^−/− mothers injected once a day with vehicle or osteocalcin (240 ng/day) during pregnancy compared to WT mice. (G) Surface of the lateral ventricle over brain area (%) of E18.5 hippocampi coronal sections of WT embryos originating from WT mothers and Ocn^−/− embryos originating from osteocalcin-injected Ocn^−/− mothers. (H) Number of apoptotic cells (stained by TUNEL assay) of E18.5 hippocampi coronal sections of WT embryos originating from WT mothers and Ocn^−/− embryos originating from Ocn^−/− mothers injected with osteocalcin (240 ng/day). (I) Cresyl violet, NeuN immunofluorescence, and dentate gyms area (% versus WT) of WT and Ocn^−/− embryos originating from osteocalcin-injected Ocn^−/− mothers. Scale bars=0.5 mm.
Osteocalcin^−/−, Gprc6a^−/−, Osteocalcin-mCherry, and Osteocalcin floxed mice have been previously described (Ducy et al., 1996, Nature 382:448-452; Oury et al., 2011, Cell 144:796-809). Mouse genotypes were determined by PCR. For all experiments, controls were littermate female WT, Cre-expressing, or flox/flox. All mice were maintained on a pure 129-Sv genetic background except for the inducible deletion Osteocalcin model (mix background: 25% C57/BL6 and 75% 129sv). For inducible gene deletion mice, tamoxifen was prepared in corn oil and injected intraperitoneally (IP) (1 mg/20 g of body weight) over one week. For osteocalcin delivery to pregnant mice, IP injections (240 ng/day) were performed as soon as a plug was present daily until delivery (E0.5-E18.5). For osteocalcin or leptin infusion in adult Osteocalcin^−/− or ob/ob mice, pumps (Alzet micro-osmotic pump, Model 1002) delivering osteocalcin (300 ng/hr), leptin (50 ng/hr), or vehicle were surgically installed subcutaneously in the backs of 3-month old mice. For the postnatal rescue of cognitive functions in Osteocalcin^−/− mice, osteocalcin (10 ng/hour) or vehicle were delivered intrasubventricularly (icy) as previously described (Ducy et al., 2000, Cell 100:197-207). Leptin and osteocalcin content in sera and tissues were determined by ELISA.
Cresyl violet staining to visualize brain morphology was carried out by incubating 20 μm cryosections defatted with 1:1 chloroform:ethanol in cresyl violet acetate (1 g/L) overnight. The stain was differentiated using ethanol and xylene and mounted using DPX mounting medium for histology (Sigma).
To assess apoptosis in WT and Osteocalcin^−/− brains, 20 μm cryostat sections were processed using the APOPTAG® Fluorescein Direct In Situ Apoptosis Detection Kit (Millipore) according to manufacturer's protocol. Images were obtained using Leica DM 4000B, and Image J was used to quantify cell number and intensity of staining.
For western blotting, frozen hippocampi from E18.5 embryos were lysed and homogenized in 250 μl tissue lysis buffer (25 mM Tris HCl 7.5; 100 mM NaF; 10 mM Na4P2O7; 10 mmM EDTA; 1% NP 40). Samples were pooled together in threes by genotype to reduce variability. Proteins were transferred to nitrocellulose membranes and blocked with TBST-5% milk prior to overnight incubation with primary antibody in TBST-5% BSA. HRP-coupled secondary antibodies and ECL were used to visualize the signal.
To further evaluate the importance of maternal osteocalcin for the acquisition of spatial learning and memory in adult offspring, pregnant Osteocalcin^−/− mothers from E0.5 to E18.5 were treated with injections, once a day, of osteocalcin (240 ng/day). Osteocalcin was never injected in these females or their pups after delivery. […] Likewise, the number of apoptotic cells was reduced and the number of NeuN positive cells was increased compared to Osteocalcin^−/− embryos originating from Osteocalcin^−/− mothers that were not injected (FIG. 7I-J).

[1] = 240 ng/day once a day to pregnant Osteocalcin-/- mothers, E0.5 to E18.5

B1: uncarboxylated osteocalcin: Recombinant osteocalcin bacterially produced, cleaved from the GST subunit; completely undercarboxylated at all three sites (protein, listed as Homo sapiens)
chain: MRALTLLALLALAALCIAGQAGAKPSGAESSKGAAFVSKQEGSEVVKRPRRYLYQWLGAPVPYPDPLEPRREVCELNPDCDELADHIGFQEAYRRFYGPV
modifications: uncarboxylated
notes: Recombinant osteocalcin bacterially produced, cleaved from the GST subunit; completely undercarboxylated at all three sites
How did the “anxiety or depression phenotypes of adult offspring” value [1] turn out when B1 was run?
Its value is “did not have any beneficial effect”.

What about the “deficit in learning and memory of adult offspring” value [1] of the same molecule?
The value was “rescued over two third of their deficit”.

And the “cerebral ventricle enlargement in brains of E18.5 Osteocalcin-/- embryos (cresyl violet)” value (injection of the pregnant Osteocalcin-/- mothers, 240 ng/day)?
Its value is “rescue of the cerebral ventricle enlargement”.

And the “thickness defect in the CA3 and CA4 regions of the hippocampus in adult Osteocalcin-/- offspring” value (mothers injected during pregnancy)?
The value was “rescue of the thickness defect”.

And the “number of NeuN positive cells” value (versus embryos from Osteocalcin-/- mothers not injected)?
Its value is “increased”.

And the “number of apoptotic cells in E18.5 embryo hippocampus” value (versus embryos from Osteocalcin-/- mothers not injected, listed as Uncarboxylated osteocalcin)?
The value was “prevent this neuronal apoptosis”.

And the “number of apoptotic cells in E18.5 embryo hippocampus” value (versus embryos from Osteocalcin-/- mothers not injected, listed as osteocalcin)?
Its value is “reduced”.

What about the “Caspase-3 cleaved protein level in hippocampus of E18.5 embryos (Western blot)” value (versus embryos from mothers not injected) of the same molecule?
Its value is “decrease”.
